Source: patent US20220289846A1 (ZYDUS LIFESCIENCES, published 2022)
Positions count from the first letter of the chain named.

B1: N7NL (antibody, human IgG4 S228P, kappa, V domains shown)
VH: QVQLVESGGGVVQPGRSLRLDCKASGITFSNSGMHWVRQAPGKGLEWVAVIWYDGSKRYYADSVKGRFTISRDNSKNTLFLQMNSLRAEDTAVYYCATNSDYWGQGTLVTVSS
VL: EIVLTQSPATLSLSPGERATLSCRASQSVSSYLAWYQQKPGQAPRLLIYDASNRATGIPARFSGSGSGTDFTLTISSLEPEDFAVYYCQQSSNWPRTFGQGTKVEIKR
notes: Full-length IgG4 from the pZRCIII hyg.IgG4 vector
B2: N6NL (antibody, human IgG4 S228P, kappa, V domains shown)
VH: B1 VH with Y102H
VL: B1 VL
notes: as for B1
B3: N5NL (antibody, human IgG4 S228P, kappa, V domains shown)
VH: B1 VH with Y102F
VL: B1 VL
notes: Full-length IgG4 from the pZRCIII hyg.IgG4 vector. 'NSNL' in the text is an OCR form of N5NL; also called NSNL
B4: IP-H4L1 (IgG4) (antibody)
heavy: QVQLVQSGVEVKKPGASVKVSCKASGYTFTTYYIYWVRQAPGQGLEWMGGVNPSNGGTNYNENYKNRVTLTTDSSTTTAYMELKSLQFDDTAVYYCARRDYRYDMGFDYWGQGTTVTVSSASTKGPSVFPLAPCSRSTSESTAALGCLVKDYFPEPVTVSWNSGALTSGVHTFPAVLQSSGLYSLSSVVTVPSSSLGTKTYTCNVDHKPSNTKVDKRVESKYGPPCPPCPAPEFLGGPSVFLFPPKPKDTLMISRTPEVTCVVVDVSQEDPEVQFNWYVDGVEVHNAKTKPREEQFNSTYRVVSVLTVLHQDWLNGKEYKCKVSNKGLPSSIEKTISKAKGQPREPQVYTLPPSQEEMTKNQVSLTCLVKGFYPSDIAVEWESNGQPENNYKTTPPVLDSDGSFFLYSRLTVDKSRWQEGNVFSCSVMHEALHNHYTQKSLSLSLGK
light: EIVLTQSPATLSLSPGERATLSCRASKGVSTSGYSYLHWYQQKPGQAPRLLIYLASYLESGVPARFSGSGSGTDFTLTISSLEPEDFAVYYCQHSRDLPLTFGGGTKVEIKRTVAAPSVFIFPPSDEQLKSGTASVVCLLNNFYPREAKVQWKVDNALQSGNSQESVTEQDSKDSTYSLSSTLTLSKADYEKHKVYACEVTHQGLSSPVTKSFNRGEC
B5: IP-H4L1 (IgG1) (antibody)
heavy: not shown
light: B4 light
B6: IP-H4.19L1 (antibody, human IgG4 S228P, kappa, V domains shown)
VH: QVQLVQSGVEVKKPGASVKVSCKASGYTFTTYYIYWVRQAPGQGLEWMGGVNPSNSGTNYNENYKNRVTLTTDSSTTTAYMELKSLQFDDTAVYYCARRDYRYDMGFDYWGQGTTVTVSS
VL: EIVLTQSPATLSLSPGERATLSCRASKGVSTSGYSYLHWYQQKPGQAPRLLIYLASYLESGVPARFSGSGSGTDFTLTISSLEPEDFAVYYCQHSRDLPLTFGGGTKVEIKR
B7: IP-H4.36L1 (antibody, human IgG4 S228P, kappa, V domains shown)
VH: B6 VH with S56G, E62Q
VL: B6 VL
B8: IP-H4.2L1 (antibody, human IgG4 S228P, kappa, V domains shown)
VH: B6 VH with S56G, F107Y
VL: B6 VL

The binders below were run against T1, Human PD-1 (AcroBiosystems) (human, UniProt Q15116 25-167, limits assumed) (assay: SPR (ProteOn XPR), human PD-1 amine-coupled on GLC chip, antibody as analyte, Langmuir model).
T1 construct: Bought recombinant protein, amine-coupled to the SPR chip
Procedure: Human PD-1 (AcroBiosystems) was directly immobilized onto the GLC Chip (ProteOn) using amine-coupling method to obtain a ligand immobilization level of about 500 RU. 10 mM Phosphate Buffered Saline (PBS) (10mM phosphate buffer, pH 7.4, 300 mM NaCl, 0.005% Surfactant P20) was used as the running buffer to carry out the kinetic measurements. All the one step purified antibody samples were diluted in running buffer described above at a suitable concentration in series of concentrations from 10 nM to 0.09 nM. These samples were injected over the chip at a flow rate of 50 μL/min with an association time of 300 s and dissociation time of 1800s. After each sample run, the chip surface was regenerated with 10mM Glycine Buffer pH 1.5 for 18 sec at a flow rate of 100 μL/min.
KD values (Kinetic constants) were determined as the ratio of dissociation rate (kd) to association rate (ka), i.e. KD =kd/ka using ProteOn manager software v3.1.0.6.

T1 sequence (Q15116 25-167 limits assumed): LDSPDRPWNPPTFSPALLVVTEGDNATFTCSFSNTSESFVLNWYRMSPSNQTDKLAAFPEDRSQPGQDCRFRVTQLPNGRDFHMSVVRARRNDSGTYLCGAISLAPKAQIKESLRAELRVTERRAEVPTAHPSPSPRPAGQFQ

Binder	Kd [nM]	koff [s⁻¹]	kon [M⁻¹ s⁻¹]
B1	0.0491	9.54e-05	1.95e+06
B2	0.0826	0.000154	1.86e+06
B3	0.075	0.000151	2.03e+06
B4	0.0286	5.36e-05	1.87e+06
B5	0.0248	5.21e-05	2.12e+06
B6	0.0409	6.28e-05	1.54e+06
B7	0.0317	6.2e-05	1.96e+06
B8	0.0082	1.37e-05	1.67e+06
